{
  "source": "paper PMC10375191",
  "about": "“Transformable Neuropeptide Prodrug with Tumor Microenvironment Responsiveness for Tumor Growth and Metastasis Inhibition of Triple‐Negative Breast Cancer” (Advanced Science, 2023)",
  "key": {"[1]": {"target": "T1, matrix metalloproteinase‐9 (MMP‐9) (Homo sapiens, UniProt P14780)", "T1 construct": "purchased Novoprotein Scientific Inc. (Shanghai, China)", "T1 sequence (P14780 94-707)": "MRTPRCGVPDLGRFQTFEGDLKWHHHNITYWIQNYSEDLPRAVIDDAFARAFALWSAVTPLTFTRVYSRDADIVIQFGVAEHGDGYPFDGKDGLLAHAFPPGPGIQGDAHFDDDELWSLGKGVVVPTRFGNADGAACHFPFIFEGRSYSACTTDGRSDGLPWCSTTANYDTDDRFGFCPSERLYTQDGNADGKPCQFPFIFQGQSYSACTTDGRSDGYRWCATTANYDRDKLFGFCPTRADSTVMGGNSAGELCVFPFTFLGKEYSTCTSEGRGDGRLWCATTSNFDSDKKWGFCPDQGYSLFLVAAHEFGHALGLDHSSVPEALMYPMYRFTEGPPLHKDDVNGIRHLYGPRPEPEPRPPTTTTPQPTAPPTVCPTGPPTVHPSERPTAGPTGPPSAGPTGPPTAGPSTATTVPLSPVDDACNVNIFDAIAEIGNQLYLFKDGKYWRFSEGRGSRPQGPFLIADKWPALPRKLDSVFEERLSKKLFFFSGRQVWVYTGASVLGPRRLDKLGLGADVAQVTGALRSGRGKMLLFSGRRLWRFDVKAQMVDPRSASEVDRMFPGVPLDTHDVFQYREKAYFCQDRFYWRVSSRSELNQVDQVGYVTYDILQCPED", "assay": "MMPs-responsive cleavage of DOX-P18 by MMP-9 (HPLC, MS, fluorescence)", "format": "in vitro ADME", "description": "The enzymatic reaction process was monitored by HPLC at 6, 12, 24, and 72 h.\nDoxorubicin hydrochloride (DOX·HCl), trifluoroacetic acid (TFA), and anhydrous N,N-Dimethylformamide (DMF) were purchased from Aladdin (Shanghai, China).\nThioanisole (TA), 1,2-ethanedithiol (EDT), and phenol were obtained from Macklin (Shanghai, China). 4-methylmorpholine (NMM), N,N’-diisopropylcarbodiimide (DIC), and 1-hydroxybenzotriazole (HOBt) were purchased from OKA (Beijing, China). Rink amide methylbenzhydrylamine (MBHA) resin, Wang resin and all Fmoc-protected amino acids were obtained from NJPeptide (Nanjing, China). Ethanol, diethyl ether, acetonitrile (ACN), and methanol were purchased from Sinopharm Chemical Reagent Co., Ltd (Shanghai, China). Piperidine, p-nitrophenol, and succinic anhydride (Succ) were obtained from Sigma-Aldrich (Shanghai, China). Recombinant human matrix metalloproteinase-2 (MMP-2) and matrix metalloproteinase-9 (MMP-9) produced by Novoprotein Scientific Inc. (Shanghai, China) are supplied as a 0.2 μm filtered buffer mixture of 20 mM Tris-HCl, 2 mM CaCl2, 150 mM NaCl, 0.05 % Brij 35 (w/v), pH 7.5, and their specific activity is >1300 pmol/min/µg as measured under the described conditions. All commercial reagents and HPLC solvents were used with […]"}, "[2]": {"assay": "Morphological transformation / particle size by DLS and TEM in PBS of different pH", "format": "physicochemical", "settings": "DLS"}, "MDA‐MB‐231 cells [3]": {"system": "MDA‐MB‐231 cells", "assay": "CCK-8 cell viability assay, MDA-MB-231", "format": "cell-based, human", "settings": "MDA-MB-231, 36 and 48 h versus 24 h", "description": "(§1) MDA‐MB‐231 cells were incubated in 96‐well plates for 24 h (1 × 10^4 cells per well). […] At the appointed time, 10 µL CCK‐8 solution was dropped into each well and further co‐incubated with treated cells for 2 h. The absorbance values at 450 nm were measured by an automated plate reader (iMark (168‐1130), Biorad, USA). The IC50 values were obtained from Microsoft Excel's FORECAST formula."}, "MCF‐7 cells": {"system": "MCF‐7 cells", "assay": "CCK-8 cell viability assay, MCF-7", "format": "cell-based, human", "settings": "MCF-7, 24 h", "description": "as §1\nbreast cancer cell line MCF-7 after 24 h incubation. Data are presented as means ±\nstandard deviations (n = 3).\n(1 picture or pasted object on this page, not shown here)"}, "MDA‐MB‐231 cells [4]": {"system": "MDA‐MB‐231 cells", "assay": "Wound healing experiment", "format": "cell-based, human", "description": "Wound healing culture inserts were tightly stuck on 12‐well plates and 2 × 10^4 MDA‐MB‐231 cells were seeded in the gap of the culture inserts to incubate for 24 h. […] After incubation for 12 and 24 h, the wound healing area was photographed by a microscope (DFC 450C, Leica, Germany)."}, "[5]": {"assay": "Pharmacokinetics in plasma", "format": "in vivo, mouse", "settings": "ICR female mice, 10 mg kg^−1 DOX content i.v.", "description": "The drug contents were quantified by HPLC (1260 Infinity II, Agilent, USA) as described in the methods of characterization in Supporting Information and the pharmacokinetic parameters were analyzed using the Phoenix WinNonlin 8.3.5 software."}, "[6]": {"system": "MDA‐MB‐231 tumor‐bearing BALB/c nude mice", "assay": "Biodistribution by ex vivo fluorescence imaging", "format": "in vivo, mouse", "settings": "single i.v. injection, ex vivo fluorescence 2-12 h", "description": "At 2, 4, 6, 8, 10, and 12 h post‐injection, the major organs and tumor were taken out and fluorescence signals were captured by IVIS."}, "[7]": {"system": "MDA‐MB‐231 xenograft model", "assay": "In vivo antitumor evaluation, MDA-MB-231 xenograft", "parameters": "species or system mouse", "description": "(§2) All the animal experimental procedures were recognized and approved by the Regional Ethics Committee for Animal Experiments at Ningbo University, China (Permit NO. SYXK (Zhe) 2019‐0005). The triple‐negative breast cancer (TNBC) xenograft tumors were established on female BALB/c nude mice (≈15 g) by subcutaneous injection of MDA‐MB‐231 cells (5 × 10^6 cells in each mouse). TNBC metastasis models were constructed by injecting MDA‐MB‐231‐luc cells (1 × 10^5 cells in each mouse) through the tail vein to female BALB/c nude mice. The day that MDA‐MB‐231‐luc was injected was set as D0. In vivo imaging system (IVIS) (Lumina XRMS Ш, PerkinElmer, USA) was utilized to identify the tumor metastasis at D12.\nWhen the tumor volume of BALB/c mice reached ≈70 mm^3 (V = L × W × W/2), the tumor‐bearing mice were randomly divided into seven groups (n = 5 for each group). […] 100 µL drug was injected intravenously through the tail vein every other day for a total of five times. The day that the first injection was given was set as D0. Tumor size and mouse weight were measured every 2 days from the day that treatment started until D26."}, "[8]": {"system": "MDA‐MB‐231 metastasis model", "assay": "Anti-metastasis evaluation, MDA-MB-231 metastasis model", "format": "in vivo, mouse", "settings": "MDA-MB-231-luc i.v. model", "description": "as §2\nFor the TNBC metastasis model, two kinds of treatments were developed. […] After seven times of injections, continued observation of the mice was carried out. […] In vivo imaging system (IVIS Lumina XRMS Ш, PerkinElmer, USA) was utilized again to estimate the tumor metastasis at D26. Meanwhile, the mice were sacrificed and the main organs (heart, livers, spleen, lung, and kidney) were separated for histological analysis."}},
  "note": "Starred links: 1 amine or outer side, 2 acyl side, 3 side chain; linkers in the order of their positions; H or OH if unused. Residues, ends and D or L forms follow the SMILES beside them. *: point of attachment. Doxorubicin(3'-N) = COc1cccc2c1C(=O)c1c(O)c3c(c(O)c1C2=O)C[C@@](O)(C(=O)CO)C[C@@H]3O[C@H]1C[C@H](N*)[C@H](O)[C@H](C)O1; Suc = O=C(CCC(=O)[*:2])[*:1]",
  "data": [
    {"smiles": "CC[C@H](C)[C@H](NC(=O)[C@@H]1CCCN1C(=O)[C@H](CC(N)=O)NC(=O)[C@H](CC(N)=O)NC(=O)[C@H](Cc1ccc(O)cc1)NC(=O)[C@H](Cc1c[nH]cn1)NC(=O)[C@H](CCCNC(=N)N)NC(=O)CNC(=O)[C@H](CCCNC(=N)N)NC(=O)[C@@H](NC(=O)CNC(=O)[C@H](CC(C)C)NC(=O)[C@@H]1CCCN1C(=O)CCC(=O)N[C@H]1C[C@H](O[C@H]2C[C@](O)(C(=O)CO)Cc3c(O)c4c(c(O)c32)C(=O)c2c(OC)cccc2C4=O)O[C@@H](C)[C@H]1O)C(C)C)C(=O)N[C@@H](Cc1c[nH]c2ccccc12)C(=O)N[C@@H](CCCNC(=N)N)C(=O)N[C@@H](CCC(N)=O)C(=O)N[C@@H](CCCNC(=N)N)C(=O)N[C@@H](Cc1ccc(O)cc1)C(N)=O", "note": "[DOX‐P18] ({Doxorubicin(3'-N)-Suc}-PLGVRGRHYNNPIWRQRY-NH2)", "values": [
      {"measurement": "Cleavage efficiency of MMP-9 relative to MMP-2", "setting": "[1]; 0.1 µg mL^−1 MMP-2 or MMP-9, 20 µg mL^−1 DOX-P18, 12 and 24 h, fluorescence intensity at 592 nm (Ex 488 nm)", "result": "about 10 times"},
      {"measurement": "Enzymatic cleavage by MMP-9", "setting": "[1]; 1 mg mL^−1 DOX-P18 with 1 µg mL^−1 MMP-9, 37 °C, HPLC at 6, 12, 24, 72 h, monitored at 500 nm, product DOX-P3 identified by MS", "result": "efficiently cleaved"},
      {"measurement": "Aggregation state (particle size distribution)", "setting": "[2]; PBS buffer pH 7.4", "result": "nanoparticles could only be detected"},
      {"measurement": "Aggregation state (particle size distribution)", "setting": "[2]; PBS, neutral and weakly acidic media (pH ≤ 6.5; 6.5, 6.0, 5.0)", "result": "monomolecular dispersion"},
      {"measurement": "IC50 with extended incubation time", "setting": "MDA‐MB‐231 cells [3]", "result": "further reduced"},
      {"measurement": "IC50 (cytotoxicity), in words", "setting": "MCF‐7 cells", "result": "higher"},
      {"measurement": "Wound healing rate", "setting": "MDA‐MB‐231 cells [4]; MDA-MB-231, 5 µg mL^−1, 12 h, PBS group 50.8%", "result": 40.3, "unit": "%"},
      {"measurement": "Wound healing rate (coverage rate)", "setting": "MDA‐MB‐231 cells [4]; MDA-MB-231, 5 µg mL^−1, 24 h, PBS group defined as 100%", "result": 71.5, "unit": "%"},
      {"measurement": "Plasma clearance (CL) relative to DOX", "setting": "[5]", "result": "1/4"},
      {"measurement": "Total plasma concentration (AUC) relative to DOX", "setting": "[5]", "result": "four times higher"},
      {"measurement": "Time of highest content in tissues", "setting": "[6]", "result": 6, "unit": "h"},
      {"measurement": "Death / body weight in tumor-bearing mice", "setting": "[7]; MDA-MB-231 tumor-bearing nude mice, DOX-P18 up to 100 mg kg^−1 (20 mg kg^−1 DOX), DOX at 10 and 20 mg kg^−1", "result": "no death or obvious weight losses"},
      {"measurement": "Tumor growth inhibition", "setting": "[7]; MDA-MB-231 xenograft, 100 mg kg^−1 (equivalent to 20 mg kg^−1 DOX) i.v. every other day, five times, n = 5", "result": "significant inhibitory efficacy"},
      {"measurement": "Histological analysis of major organs after treatment", "setting": "[7]; MDA-MB-231 xenograft, 24 days, five administrations, 5 mg kg^−1 DOX or DOX equivalent", "result": "without obvious lesions in other organs"},
      {"measurement": "Lung metastasis, prevention schedule (histology D26)", "setting": "[8]; 25 mg kg^−1 DOX-P18 (5 mg kg^−1 DOX) seven times every 2 days from D0", "result": "limited number"},
      {"measurement": "Lung and bone metastasis, treatment schedule (histology D26)", "setting": "[8]; 25 mg kg^−1 DOX-P18 (5 mg kg^−1 DOX) seven times every 2 days from D14", "result": "significant metastasis inhibition"}
    ]}
  ]
}
